# In article doi:10.1101/2022.10.17.512631 (bioRxiv, 2022):
# B1: HEXIM1 (natural protein)
# chain: MAEPFLSEYQHQPQTSNCTGAAAVQEELNPERPPGAEERVPEEDSRWQSRAFPQLGGRPGPEGEGSLESQPPPLQTQACPESSCLREGEKGQNGDDSSAGGDFPPPAEVEPTPEAELLAQPCHDSEASKLGAPAAGGEEEWGQQQRQLGKKKHRRRPSKKKRHWKPYYKLTWEEKKKFDEKQSLRASRIRAEMFAKGQPVAPYNTTQFLMDDHDQEEPDLKTGLYSKRAAAKSDDTSDDDFMEEGGEEDGGSDGMGGDGSEFLQRDFSETYERYHTESLQNMSKQELIKEYLELEKCLSRMEDENNRLRLESKRLGGDDARVRELELELDRLRAENLQLLTENELHRQQERAPLSKFGD
# Biological target: METTL3 (human, UniProt Q86U44 1-580)
# Assay: SPR
# METTL3, sequence (Q86U44 whole entry): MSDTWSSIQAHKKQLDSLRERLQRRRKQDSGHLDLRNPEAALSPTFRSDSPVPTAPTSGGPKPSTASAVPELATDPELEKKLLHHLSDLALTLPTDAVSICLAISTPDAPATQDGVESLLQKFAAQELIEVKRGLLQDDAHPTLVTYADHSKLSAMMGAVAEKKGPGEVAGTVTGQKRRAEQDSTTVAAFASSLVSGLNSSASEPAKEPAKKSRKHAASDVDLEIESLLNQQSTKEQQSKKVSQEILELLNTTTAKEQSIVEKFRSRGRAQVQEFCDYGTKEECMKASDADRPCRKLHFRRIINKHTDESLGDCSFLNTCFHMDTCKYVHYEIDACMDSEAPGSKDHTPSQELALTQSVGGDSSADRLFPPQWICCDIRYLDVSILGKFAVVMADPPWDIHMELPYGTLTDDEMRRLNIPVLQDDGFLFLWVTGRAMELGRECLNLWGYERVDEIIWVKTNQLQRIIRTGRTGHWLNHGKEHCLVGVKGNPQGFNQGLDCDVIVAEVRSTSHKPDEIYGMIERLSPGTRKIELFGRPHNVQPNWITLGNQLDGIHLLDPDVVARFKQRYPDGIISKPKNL
binder,measurement,value
B1,Kd,~0.27 µM
